One data set can be described thus: clinical. How it is done: The blood samples were collected in Vacuette® 3 mL K2E K2EDTA vacutainer blood collection tubes, centrifuged (2500 rpm for 10 min at 4 °C), and the plasma was stored in a -20 °C freezer. Plasma concentrations were measured based on liquid chromatography with tandem mass spectrometric detection (LC-MS/MS) validated according to good laboratory practice (GLP), (LabCorp, Huntingdon, UK). The PK analysis was performed using a non-compartmental analysis method. […] The terminal phase half-life (T½) was calculated using terminal phase rate constant, which resulted from linear regression of the terminal linear portion of the log-concentration vs. time curve.
The primary endpoint was the sensitivity for detection of oral and oropharyngeal cancer verified by histology. The secondary endpoints were divided into efficacy and safety & tolerability. Regarding efficacy, the TBR and intraoperative tumor signal intensity were endpoints. The pharmacokinetics profile determined by a non-compartmental analysis was specified by peak plasma concentration, time of peak plasma concentration, the area under the plasma concentration-time curve from time-zero extrapolated to infinity, and terminal half-life. The safety & tolerability were assessed with adverse event monitoring, laboratory parameters, ECGs, vital signs, and physical examinations.

The subject of data set [1] is oral and oropharyngeal squamous cell carcinoma (OSCC, OPSCC). As to the kind of experiment: Sensitivity of FG001 optical imaging for tumor detection, verified by histology. The data set is classed as in vivo, human. The note with it: 16 patients with OSCC/OPSCC; FG001 36, 16 or 4 mg i.v. the evening prior to surgery; 11 optically guided biopsies and 5 cross-section samples. As for the experimental part: For 11 out of 16 patients, a single biopsy was sampled from the resected tumor specimen ex-vivo on the back-table from a region with a bright fluorescence presented by the imaging system. For the remaining 5 patients, the tumors were cross-sectioned for detailed optical imaging and histopathological processing (see next section). The back-table imaging was performed with the same settings (Image profile: NIR_highcontrast or NIR_contrast, excitation laser: 805 nm) and with no other light sources, always with a perpendicular angle to the table, and a camera-to-tumor distance of 20 centimeters. The biopsies were taken with biopsy-punch-forceps, hereafter formalin (4%) fixed, paraffin-embedded (i.e. FFPE), and evaluated with histopathological assessment by a pathologist for the presence of cancer tissue - concluding on cancer-positive or negative.
For 5 out of the 16 patients, the resected tumor specimens were cut in half, sliced at the OR, and imaged with the Elevision® imaging system. The specimens underwent routine pathologic processing at the Department of Pathology. […] To evaluate the overlap between fluorescence signal from FG001, uPAR-expression, and tumor tissue, the cryosections were first fluorescently scanned with an Amersham Typhoon^TM scanner from Cytiva and, thereafter, stained using immunohistochemistry for uPAR and Cytokeratin (CK), and hematoxylin and eosin (H&E) stained. […]

Data set [2] concerns neck lymph node metastasis. Briefly: Optical visualization of neck lymph node metastasis. The data set is classed as in vivo, human. How it is done:
All patients were treated surgically according to the national guidelines. The primary investigator (PI) was part of the surgical team in all procedures. A surgical robot system (DaVinci Si, Intuitive) was used for TORS in the two patients with OPSCC. The surgeons were not allowed to resect tissue based on intraoperative detected fluorescence signal but complied with standard of care. Depending on the clinical TNM staging (based on clinical examination, ultrasonography examination of the neck, and MRI or CT scans), either sentinel lymph node biopsy (using 99^mTc-nanocoll) or neck dissection was performed for neck management. Post-surgical (chemo)radiation was prescribed according to national guidelines at a multidisciplinary conference. The pre-, intraoperative, and ex-vivo optical images were obtained using the open-field imaging system Elevision® model VS3 Iridium-Visionsense Infrared (IR) Fluorescence, Vision System (Medtronics, USA). Image profile: NIR_highcontrast or NIR_contrast, excitation laser: 805 nm. The Elevision IR system generates real-time optical imaging merged with the color video recording on a viewer screen. The intensity-dependent multi-color NIR overlay was presented in parallel with white-light and NIR grayscale images. The camera head was mounted on a maneuverable arm over the surgical field with sterile draping. The preferred camera-to-tumor distance was 20-40 centimeters, but the system also allows positioning at closer or longer distances to areas of interest. For optimal imaging, all other light sources in the OR were switched off and window blinds were closed. The imaging system itself provides powerful white light illumination of the surgical field when imaging is performed.
The exploratory endpoints were defined as: 1) Morphological co-localization between optical signal, tumor tissue, and target (i.e. uPAR) expression, 2) Optical visualization of local neck lymph node metastasis, and 3) Longitudinal investigation of the optimal signal intensity for intraoperative imaging.

Marks after values point to notes of the source that are not given here. Non-standard residues stand in square brackets, D forms with d. Residues, ends and D or L forms follow the SMILES beside them. *: point of attachment. X1 = CC1(C)C(=CC=CC=CC=CC2=[N+](CCCCCC(=O)*)c3ccc4ccccc4c3C2(C)C)N(CCCCS(=O)(=O)[O-])c2ccc3ccccc3c21; Cha = N[C@@H](CC1CCCCC1)C(=O)O

In general, Tmax refers to the time from dosing to the highest level. Usually Cmax stands for the peak of the concentration-time curve. In general, half-life refers to the time in which the quantity being followed falls by half. Regarding `CC(C)C[C@H](NC(=O)[C@H](Cc1ccc(O)cc1)NC(=O)[C@@H](CCCNC(=N)N)NC(=O)[C@@H](CO)NC(=O)[C@H](Cc1ccccc1)NC(=O)[C@H](CC1CCCCC1)NC(=O)[C@H](CC(=O)O)NC(=O)[C@H](CCC(=O)O)NC(=O)[C@H](CCC(=O)O)NC(=O)CCCCC[N+]1=C(C=CC=CC=CC=C2N(CCCCS(=O)(=O)[O-])c3ccc4ccccc4c3C2(C)C)C(C)(C)c2c1ccc1ccccc21)C(=O)N[C@@H](Cc1c[nH]c2ccccc12)C(=O)N[C@@H](CO)C(=O)O` [FG001, ICG-Glu-Glu-AE105] (X1-EED[Cha]F[dS][dR]YLWS-OH; N-terminus and C-terminus assumed), the “Extrapolation to AUC from 0 to infinity (AUC0-inf)” value in “clinical” (all patients with a valid terminal phase) is under 25%. The “Mean half-life of FG001” value in “clinical” (human plasma, based on the plasma concentration measurements, all evaluable patients) is recorded as “approximately 12 hours”. In addition, the “Maximum concentration (mean (SD))” value in “clinical” (human plasma, single 4 mg i.v. dose, n = 4, LC-MS/MS) is listed as 577 (373)* ng/mL. For the same compound, the “Time of peak plasma concentration” value in the data set “clinical” (human plasma, single i.v. dose, first sample at 1 hr ± 15 min) was “within the first hour”. The Tmax in “clinical” (human, plasma, iv) was determined as 1 h. Besides, the Cmax in “clinical” (human, plasma, iv, 16 mg) came to 4300 ng/mL; in the data set “clinical” (human, plasma, iv, 36 mg), 8130 ng/mL. Further, in “clinical” (human, plasma, iv, 36 mg), the half-life was 11.2 h. Further, the “Time of peak plasma concentration, one outlier” value in the data set “clinical” (one patient in the 4 mg group) was 12.8 h. In data set [1], the “Sensitivity for tumor detection verified by histology” value worked out at 100%. Besides, the “Intraoperative visualization of clinical neck metastasis” value in data set [2] (during neck dissection, confirmed on back table and by pathology) is reported as “clearly visualized”. Moreover, in data set [2] (no systematic imaging of lymph nodes without clinical evidence of metastasis), the “Uptake in adjacent unaffected lymph nodes” value was “No uptake”. Further, in data set [2] (two cases with SNB staging, nodes all negative for metastatic deposits on final pathology), the “Optical signal of harvested sentinel nodes” value is reported as “absent or weak optical signal”.
